# From patent publication CN112375146A
# B1: Y45克隆号抗体 (antibody, V domains shown)
# VH: EVKLLESGGGLVQPGGSLKLSCAASGDFRYFQWMSWVRQAPGKGLEWIGEIDNLDSITKYTPSLKDKFIISRDNAKNTLYLQMRKVRSEDTALYYCRAYRYMYDPRWGQGTSVTVSS
# VL: DIVLTQSPASLAVSLGQRATISCRASKVSSTSSGYYMHWYQQKPGQPPKLLIYALNNLESGVPARFSGSGSGTDFTLNVHPVEEEDAATYYCQTFYGSELPFGSGTKLEIK
# Target: FMC63 scFv, His Tag
# Assay: SPR; FMC63 scFv as analyte at 125, 62.5, 31.25, 15.625, 7.813, 3.906 and 1.953 nM
binder,measurement,value
B1,Kd,1.08 nM
